According to publication PMC6800134:

Biological target: GST-tagged Rb RxL mut (lacks all 5 RxL sequences in its unstructured regions) (human) (UniProt P06400)
Chain of UniProt P06400 (P06400 whole entry): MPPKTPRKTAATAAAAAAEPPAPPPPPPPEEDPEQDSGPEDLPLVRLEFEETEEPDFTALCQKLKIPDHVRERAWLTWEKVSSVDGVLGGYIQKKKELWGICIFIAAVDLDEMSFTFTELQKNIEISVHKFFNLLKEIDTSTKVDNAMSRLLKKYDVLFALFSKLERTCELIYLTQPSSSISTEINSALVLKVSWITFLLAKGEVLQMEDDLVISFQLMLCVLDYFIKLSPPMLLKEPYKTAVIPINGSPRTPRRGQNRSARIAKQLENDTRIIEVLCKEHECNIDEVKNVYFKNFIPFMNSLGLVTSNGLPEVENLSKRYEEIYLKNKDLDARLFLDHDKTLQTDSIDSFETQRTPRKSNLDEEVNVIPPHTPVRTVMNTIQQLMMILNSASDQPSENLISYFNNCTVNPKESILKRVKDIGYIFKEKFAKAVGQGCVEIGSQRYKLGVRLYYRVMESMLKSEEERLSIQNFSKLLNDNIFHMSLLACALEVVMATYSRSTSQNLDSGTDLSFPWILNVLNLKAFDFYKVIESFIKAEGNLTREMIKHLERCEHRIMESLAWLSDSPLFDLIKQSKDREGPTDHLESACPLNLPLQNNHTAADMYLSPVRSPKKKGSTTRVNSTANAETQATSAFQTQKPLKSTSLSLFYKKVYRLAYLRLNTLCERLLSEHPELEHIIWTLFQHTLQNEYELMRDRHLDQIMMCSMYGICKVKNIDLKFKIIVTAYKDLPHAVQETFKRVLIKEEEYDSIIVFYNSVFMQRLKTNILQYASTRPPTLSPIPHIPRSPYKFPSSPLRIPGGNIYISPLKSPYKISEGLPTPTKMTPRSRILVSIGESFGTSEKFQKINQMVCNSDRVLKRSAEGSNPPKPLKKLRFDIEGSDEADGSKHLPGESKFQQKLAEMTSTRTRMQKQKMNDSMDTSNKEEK

Substance: 3X FLAG-tagged cyclin A-Cdk2 fusion complex (enzyme)
- in vitro kinase assay: fold less phosphorylation than wild type Rb: 2.9 fold

Substance: 3X FLAG-tagged cyclin E1-Cdk2 fusion complex (enzyme)
- in vitro kinase assay: fold less phosphorylation than wild type Rb: 2 fold
